Experiment [1] concerns the target T1, neuropeptide Y2 receptor (SK-N-BE cell membranes), P49146.
T1 chain: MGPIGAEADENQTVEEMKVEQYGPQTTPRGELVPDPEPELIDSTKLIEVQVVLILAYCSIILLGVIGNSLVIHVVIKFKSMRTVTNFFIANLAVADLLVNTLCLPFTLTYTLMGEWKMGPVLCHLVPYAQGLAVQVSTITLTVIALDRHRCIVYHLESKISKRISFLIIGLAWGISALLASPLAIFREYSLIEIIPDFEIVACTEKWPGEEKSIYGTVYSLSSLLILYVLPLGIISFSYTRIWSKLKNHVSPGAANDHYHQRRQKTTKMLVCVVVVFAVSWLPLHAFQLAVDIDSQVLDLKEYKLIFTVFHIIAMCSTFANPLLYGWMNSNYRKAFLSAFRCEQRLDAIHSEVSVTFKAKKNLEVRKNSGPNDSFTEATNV
As to the kind of experiment: [125I]-human PYY displacement, SK-N-BE membranes.

Experiment [2] deals with T2, CGRP receptors (SK-N-MC cell membranes), Q16602.
T2 chain 1: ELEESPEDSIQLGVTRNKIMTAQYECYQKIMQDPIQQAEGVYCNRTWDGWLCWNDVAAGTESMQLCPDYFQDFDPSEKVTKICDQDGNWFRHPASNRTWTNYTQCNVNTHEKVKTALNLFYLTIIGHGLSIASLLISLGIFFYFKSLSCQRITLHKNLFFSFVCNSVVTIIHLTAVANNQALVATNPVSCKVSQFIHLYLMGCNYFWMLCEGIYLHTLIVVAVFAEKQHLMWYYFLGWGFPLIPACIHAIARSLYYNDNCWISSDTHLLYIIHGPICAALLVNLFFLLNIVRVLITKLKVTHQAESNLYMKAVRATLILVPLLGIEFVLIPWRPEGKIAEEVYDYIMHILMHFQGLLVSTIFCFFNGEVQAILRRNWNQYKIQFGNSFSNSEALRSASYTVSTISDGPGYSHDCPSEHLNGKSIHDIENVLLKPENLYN
T2 chain 2: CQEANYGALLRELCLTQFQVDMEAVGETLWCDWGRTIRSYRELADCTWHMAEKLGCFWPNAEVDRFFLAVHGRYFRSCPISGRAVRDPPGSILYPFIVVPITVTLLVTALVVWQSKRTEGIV
As to the kind of experiment: 125I-hCGRP displacement, SK-N-MC membranes.

In experiment [3] the target is GLP-1/GIP/CT (receptors read by the GLP-1/GIP/CT cyclase assay). As to the kind of experiment: cell-based or functional assay.
Experiment [4] concerns the target T3, amylin receptors (rat nucleus accumbens membranes) (rat).
T3 chain 1: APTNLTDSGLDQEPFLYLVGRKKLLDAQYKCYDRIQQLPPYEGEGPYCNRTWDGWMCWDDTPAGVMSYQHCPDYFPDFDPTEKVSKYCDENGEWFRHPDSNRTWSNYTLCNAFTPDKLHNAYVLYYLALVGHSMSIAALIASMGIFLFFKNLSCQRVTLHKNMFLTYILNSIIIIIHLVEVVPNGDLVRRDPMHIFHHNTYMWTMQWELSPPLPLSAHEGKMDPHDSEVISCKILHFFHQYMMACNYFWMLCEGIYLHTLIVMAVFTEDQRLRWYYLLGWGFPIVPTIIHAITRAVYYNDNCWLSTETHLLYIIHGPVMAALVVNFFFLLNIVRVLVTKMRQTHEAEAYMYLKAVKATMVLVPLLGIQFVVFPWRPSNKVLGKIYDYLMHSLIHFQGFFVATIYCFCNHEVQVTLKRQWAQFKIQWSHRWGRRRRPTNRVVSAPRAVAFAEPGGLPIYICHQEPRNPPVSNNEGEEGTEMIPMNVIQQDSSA
T3 chain 2: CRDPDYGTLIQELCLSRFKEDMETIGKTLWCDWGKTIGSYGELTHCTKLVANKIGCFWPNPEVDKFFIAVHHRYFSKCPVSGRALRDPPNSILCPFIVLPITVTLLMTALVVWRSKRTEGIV
As to the kind of experiment: amylin receptor binding assay.

Experiment [5] deals with amylin receptors (rat nucleus accumbens membranes) (rat). As to the kind of experiment: 125I-amylin displacement, rat nucleus accumbens membranes.
In experiment [6] the target is calcitonin receptor. As to the kind of experiment: cell-based or functional assay.
Chain of calcitonin receptor (P30988 whole entry): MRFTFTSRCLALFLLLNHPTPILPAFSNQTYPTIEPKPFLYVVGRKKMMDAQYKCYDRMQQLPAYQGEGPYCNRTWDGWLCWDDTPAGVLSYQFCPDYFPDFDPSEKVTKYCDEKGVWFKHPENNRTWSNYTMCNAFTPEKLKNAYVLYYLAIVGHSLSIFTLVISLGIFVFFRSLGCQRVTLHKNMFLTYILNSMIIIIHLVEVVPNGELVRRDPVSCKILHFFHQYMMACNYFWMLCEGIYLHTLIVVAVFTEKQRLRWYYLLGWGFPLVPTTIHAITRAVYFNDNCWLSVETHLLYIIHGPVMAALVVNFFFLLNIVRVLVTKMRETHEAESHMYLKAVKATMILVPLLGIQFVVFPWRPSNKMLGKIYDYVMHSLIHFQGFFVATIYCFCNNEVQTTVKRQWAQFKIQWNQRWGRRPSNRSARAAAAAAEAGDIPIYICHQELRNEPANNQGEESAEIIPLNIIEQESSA

B1: [#Mal-Bu-(bAla)-PYY-(3-36), amide] [#S-Prp-(bAla)-Compound 10, amide] (peptide)
chain 1: not shown
chain 2: […]
modifications: not checked
B1 yielded a Receptor Binding in experiment [1] of 0.2.

As to DFMGWMDFGKRKCNTATCATQRLANELVRLQTYPRTNVGSNTY (modifications not checked) [27(p-CH2SO3)-PheCCK8(26-33),G,K,R,15Glu,hAmy(1-17),18Arg,Sct(18-26),hAmy(32-37)], in experiment [2], the Receptor Binding was found to be 4.4. Moreover, the Receptor Activation: GLP-1/GIP/CT cyclase in experiment [3] is 1000.

In the case of DFMGWMDFGKRKCNTATCATQRLANELVRLQTYPRTNVGSNTY (modifications not checked) [DF(P-CH2SO3)… …], in experiment [4], the IC50 – broadly, the concentration at which inhibition is half-maximal – was 0.083 nM.

Regarding KCNTATCATQRLANFLVRSSNNLGPVLPPTNVGSNTY (modifications not checked) [Rat amylin], the values for the Receptor Binding in experiment [2] and in experiment [5] were 21 and 0.05, respectively. Moreover, the Receptor Activation: GLP-1/GIP/CT cyclase in experiment [3] came out at 5. Moreover, the Receptor Activation: CT cyclase in experiment [6] was 326.

B2: [#Suc-(bAla)-PYY-(3-36), amide] [#NH-Des-Lys1-Rat Amylin, amide] (peptide)
chain 1: not shown
chain 2: CNTATCATQRLANFLVRSSNNLGPVLPPTNVGSNTY
modifications: not checked
On to B2, for which the Receptor Activation: CT cyclase in experiment [6] was 645. The Receptor Binding in experiment [1] came out at 0.39.

(Values after patent publication US20090286723A1.)
